In this experiment the target is GP55 (ORF55-encoded replicase of lactococcal phage 1706), full length (lactococcal phage 1706). Description: SEC-MALS; Superdex 200 Increase 10/300 GL, 20 mM Tris-HCl pH 8.0, 100 mM NaCl, 1 mM TCEP, 0.5 ml/min; Wyatt Dawn Heleos II; self-association of the Ni-NTA-purified protein.

In turn, “GP55 (ORF55-encoded replicase of lactococcal phage 1706), full length (enzyme)” had a stoichiometry N of 2.

For the origin of these results see article PMC12205980.
